These are literature values, as cited in publication PMC4815344.

Broadly, the Kd is the concentration at which binding is half-saturated.

The data set deals with soluble epoxide hydrolase (Homo sapiens) (UniProt P34913).

Sequence of soluble epoxide hydrolase (P34913 whole entry): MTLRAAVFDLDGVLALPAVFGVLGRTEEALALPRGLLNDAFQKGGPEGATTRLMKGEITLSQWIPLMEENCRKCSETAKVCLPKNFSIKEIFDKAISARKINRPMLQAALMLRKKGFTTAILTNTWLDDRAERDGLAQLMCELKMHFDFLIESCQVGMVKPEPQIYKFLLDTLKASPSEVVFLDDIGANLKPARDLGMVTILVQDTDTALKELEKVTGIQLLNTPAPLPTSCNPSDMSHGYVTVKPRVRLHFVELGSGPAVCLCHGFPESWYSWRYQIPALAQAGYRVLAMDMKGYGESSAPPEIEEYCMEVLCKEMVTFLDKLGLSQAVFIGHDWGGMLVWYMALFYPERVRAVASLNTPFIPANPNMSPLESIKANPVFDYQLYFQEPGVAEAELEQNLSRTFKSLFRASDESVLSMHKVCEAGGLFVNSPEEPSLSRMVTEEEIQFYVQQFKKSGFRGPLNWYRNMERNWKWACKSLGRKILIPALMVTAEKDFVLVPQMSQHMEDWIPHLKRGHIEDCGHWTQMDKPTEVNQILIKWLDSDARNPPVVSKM

In the case of “soluble epoxide hydrolase (from UniProt P34913)”, the Kd is 5 pM.
